According to US20110059095A1 (Regeneron, published 2011):
Where no end group is shown, it is not given here. The star is where a group is joined. Biotin = O=C1N[C@H]2[C@H](CS[C@H]2CCCCC(=O)*)N1

How the values were obtained:
full length human PAR-2 = molecular target: T1, full length human PAR-2 (human, UniProt P55085 26-397); test: MSD cell binding
T1 construct: overexpressed on HEK293-derived 293/D9 cells; also called 293/D9/hPAR-2rec cells
Method: (§1) HEK293 cells were transfected with an NF-κB-luciferase-IRES-eGFP reporter plasmid. […] A clonal cell line, named D9, having low background levels of luciferase activity and high levels of eGFP when induced with IL-1β was made by a series of successive sorts of cell populations using flow cytometry. The 293/D9 cell line was then separately transfected with human PAR-2 or mouse PAR-2 to create the stable cell lines 293/D9/h PAR-2rec and 293/D9/m PAR-2rec, respectively.
(§2) Cells were plated on MSD high-bind 96 well plates at a density of 4×10⁴ cells/well in PBS and incubated for one hour at room temperature. Cells were then blocked in PBS with 2% BSA and incubated at room temperature for one hour. Anti-PAR-2 antibodies (ranging from 100 nM to 0.098 nM) were serially diluted two-fold in PBS with 0.5% BSA and incubated with the cells for one hour at room temperature followed by washing in PBS with 0.5% BSA. Sulfo-tagged anti-human IgG antibody (MSD) at a concentration of 0.1 μg/ml was then added to the cell/antibody mixture and incubated at room temperature for an additional hour. After another wash, a 1× non-surfactant containing read buffer was added and electro-chemiluminescent signal was read on the MSD Sector Imager. Signal of antibody binding to 293/D9 cells was subtracted from signal to 293/D9/hPAR-2rec or 293/D9/mPAR-2rec cells. Subtracted data were analyzed using a sigmoidal dose-response model in GraphPad Prism and EC₅₀ and Bₘₐₓ values were reported (Table 18). EC₅₀ values are defined as the antibody concentration required to achieve 50% maximal binding (Bₘₐₓ) to cells.

full length mouse PAR-2 = molecular target: T2, full length mouse PAR-2 (mouse, UniProt P55086 26-399); test: MSD cell binding
T2 construct: also called 293/D9/mPAR-2rec cells
T2 chain: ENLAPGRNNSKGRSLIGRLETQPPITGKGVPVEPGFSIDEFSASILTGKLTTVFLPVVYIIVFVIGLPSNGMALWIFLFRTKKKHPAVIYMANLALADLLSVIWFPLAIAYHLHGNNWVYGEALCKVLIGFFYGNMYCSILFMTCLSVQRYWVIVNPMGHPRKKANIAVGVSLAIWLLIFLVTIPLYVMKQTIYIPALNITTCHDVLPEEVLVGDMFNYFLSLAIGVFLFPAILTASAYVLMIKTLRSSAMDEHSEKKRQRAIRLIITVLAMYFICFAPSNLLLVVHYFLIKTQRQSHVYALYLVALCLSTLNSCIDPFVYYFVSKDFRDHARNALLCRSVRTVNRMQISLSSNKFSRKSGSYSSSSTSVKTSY
Method: as §1, §2

[1] = molecular target: T3, Peptide C (human PAR-2), N-terminal biotinylated (Human); test: SPR, peptide immobilized
T3 construct: also called Peptide C N-Term
T3 peptide: Biotin-GGGGSSLIGKV

[2] = molecular target: T4, Peptide K (human PAR-1), unbiotinylated (Human); test: SPR, antibody captured
T4 peptide: ATNATLDPRSFLLRNPND

[3] = molecular target: T5, Peptide L (human PAR-3), unbiotinylated (Human); test: SPR, antibody captured
T5 peptide: DTNNLAKPTLPIKTFRGA

[4] = molecular target: T6, Peptide M (human PAR-4), unbiotinylated (Human); test: SPR, antibody captured
T6 peptide: ESGSTGGGDDSTPSILPAP

[5] = molecular target: T7, Peptide B (human PAR-2), unbiotinylated (Human); test: SPR, antibody captured
T7 construct: also called Peptide B No Biotin
T7 peptide: SLIGKVDGTSHVTG
Method: Equilibrium dissociation constants (KD values) for antigen binding to selected purified PAR-2 antibodies were determined by surface kinetics using a real-time surface plasmon resonance biosensor assay. Antibody was captured on either a rabbit anti-mouse IgG polyclonal antibody (GE Healthcare, Piscataway, N.J.) surface or a goat anti-human IgG polyclonal antibody (Jackson Immuno Research Lab, West Grove, Pa.) surface created through direct amine chemical coupling to a BIACORE™ CM5 sensor chip to form a captured antibody surface. […] Antigen-antibody binding and dissociation were monitored in real time at room temperature. Kinetic analysis was performed to calculate KD and half-life of antigen/antibody complex dissociation (Table 10). For those antibodies where no T_{1/2} value is shown, steady state analysis was used to calculate the KD value. NB: no binding observed under current experimental conditions. ND: not determined.

[6] = molecular target: T8, Peptide A (human PAR-2), C-terminal biotinylated (Human, C-terminal biotin via G4S linker); test: SPR, peptide immobilized
T8 construct: also called Peptide A C-Term
Method: (§3) In another series of experiments, equilibrium dissociation constants (KD values) for purified antibody binding to selected biotinylated and unbiotinylated forms of PAR-2 peptides were determined by surface kinetics using a real-time surface plasmon resonance biosensor assay. Neutravidin (Pierce, Rockford, Ill.) was covalently coupled to the surface of a Biacore™ C1 chip or CM5 chip using amine coupling chemistry. Biotinylated (N-Term or C-Term) PAR-2 peptides (Peptides A and B) were immobilized on the surface via the high affinity binding interaction between biotin and the amine coupled Neutravidin.
(§4) In a first experiment using this format, varying concentrations (ranging from 5 to 100 μg/ml) of purified antibody were injected at a rate of 50 μl/min over a surface coated with immobilized peptide at low-density (<1RU) for 300 seconds. Antibody-peptide binding and dissociation was monitored in real time 25° C.

[7] = molecular target: T9, Peptide B (human PAR-2), C-terminal biotinylated (Human, not fully specified); test: SPR, peptide immobilized
T9 construct: also called Peptide B C-Term
T9 peptide: SLIGKVDGTSHVTGGGGGS-biotin
Method: as §3, §4

[8] = molecular target: T10, Peptide A (human PAR-2), N-terminal biotinylated (Human, N-terminal biotin via G4S linker); test: SPR, peptide immobilized
T10 construct: also called Peptide A N-Term
T10 peptide: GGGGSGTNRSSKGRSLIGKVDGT

[9] = molecular target: T11, Peptide B (human PAR-2), N-terminal biotinylated (Human); test: SPR, peptide immobilized
T11 construct: also called Peptide B N-Term
T11 peptide: Biotin-GGGGSSLIGKVDGTSHVTG

[10] = molecular target: T12, Peptide E (mouse PAR-2), N-terminal biotinylated (Mouse (Mus musculus), N-terminal biotin via G4S linker); test: SPR, peptide immobilized
T12 construct: also called Peptide E N-Term
T12 peptide: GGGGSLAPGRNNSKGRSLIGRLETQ

[11] = molecular target: T13, Peptide G (rat PAR-2), N-terminal biotinylated (Rat (Rattus norvegicus), N-terminal biotin via G4S linker); test: SPR, peptide immobilized
T13 construct: also called Peptide G N-Term
T13 peptide: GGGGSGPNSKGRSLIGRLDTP

[12] = molecular target: T14, Peptide F (monkey PAR-2), N-terminal biotinylated (Monkey (Macaca mulatta), N-terminal biotin via G4S linker); test: SPR, peptide immobilized; SPR, biotinylated peptide on the chip, bivalent antibody in solution
T14 construct: also called Peptide F N-Term
T14 sequence (peptide, as listed by the source): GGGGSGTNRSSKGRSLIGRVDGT

T1 sequence (P55085 26-397 G138A limits assumed): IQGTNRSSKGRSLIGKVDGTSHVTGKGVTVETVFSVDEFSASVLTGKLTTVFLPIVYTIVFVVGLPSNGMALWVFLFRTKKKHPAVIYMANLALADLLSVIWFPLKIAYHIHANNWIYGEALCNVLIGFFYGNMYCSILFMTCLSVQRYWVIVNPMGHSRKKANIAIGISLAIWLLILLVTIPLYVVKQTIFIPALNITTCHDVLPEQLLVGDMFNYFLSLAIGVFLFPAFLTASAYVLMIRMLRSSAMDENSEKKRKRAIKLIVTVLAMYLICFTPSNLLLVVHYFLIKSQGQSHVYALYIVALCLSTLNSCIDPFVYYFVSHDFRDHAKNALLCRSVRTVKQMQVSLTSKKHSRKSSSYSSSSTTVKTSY

B1: H4H590N (antibody, human IgG4, V domains shown)
VH: EVQLVESGGGLVQPGRSLRLSCAASGFTFDDYAMHWVRQAPGKGLEWVSGITWNSGTMAYADSVKGRFTISRDNAKNSLYLQMNSLRAEDTALYYCAKENWAFDYWGQGTLVTVSS
VL: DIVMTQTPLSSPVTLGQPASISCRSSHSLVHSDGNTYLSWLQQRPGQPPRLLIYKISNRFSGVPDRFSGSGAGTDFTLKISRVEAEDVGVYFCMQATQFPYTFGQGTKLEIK
notes: cloned onto human IgG4; also called H1M590N variable regions
Bmax (full length human PAR-2): 6550 MSD Unit
EC50 (full length human PAR-2): 9.72 nM
Bmax (full length mouse PAR-2): 13300 MSD Unit
EC50 (full length mouse PAR-2): 5.76 nM
binding result [1]: no binding
binding result [2]: no binding
binding result [3]: no binding
binding result [4]: no binding
binding result [5]: no binding
Kd [6]: 3.56 nM
T1/2 [6]: 3 min
binding result [7]: no binding
Kd [8]: 1.52 nM
T1/2 [8]: 3 min
binding result [9]: no binding
Kd [10]: 1.28 nM
T1/2 [10]: 7 min
Kd [11]: 2.94 nM
T1/2 [11]: 2 min
Kd [12]: 1.84 nM
T1/2 [12]: 2 min
